Measured values published in the nanobody polyreactivity screen of Harvey et al. (2022).

Assay: yeast display, Sf9 membrane polyspecificity reagent, FACS + sequencing; frameworks hold sequencing errors
Summary of the method: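 Nanobodies from a synthetic yeast display library (Saccharomyces cerevisiae BJ5465), induced 36–48 hours with galactose, were stained 1 hour at 4 °C with 10% biotinylated, detergent-solubilized Sf9 membrane reagent, enriched on streptavidin microbeads, then FACS-sorted. Anti-HA (expression) and streptavidin (reagent binding) fluorescence set low and high (top ~1%) gates. Polyreactivity labels come from the gate of origin. Genes were colony-PCR amplified, MiSeq 2 × 250 sequenced and filtered by CDR length.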

| Sequence | polyreactivity (PSR sort gate) |
| --- | --- |
| QVQLEESGGGLVQAGGSLRLSCAASGSTFYYNAIGWYRQAPGKERELVAGITSGTGTKYADSVKGRFTISRDNAKNRVYLQMNSLKPEDTAVYYCAKDGTRYGSAPFGYWGQGTQVTVSS | low polyreactivity |
| QVQLEESGGGLVQAGGSLRLSCAASGSTFYYYALGWYRQAPGKERELVATINKIVGITYYADSVKGRFTISRDNAKNTVYLQRNSLKPEDTAVYYCAVQDTSYDVQYSYGYWGQGTQVNVSS | low polyreactivity |
| QVQLEESGGGLVQAGGSLRLSCAASGTTFGINCYGMYRQAPGKERELVAGISVSGGSTYYADSVNGRFTISRDNAYNTVYLQMNSLKPEDTAVYYCAAKWFNRDFDYWGQGTQVTVSS | low polyreactivity |
| QVQLEESGGGLVQAGGSLRLSCAASGYIFSQYAMGWYRPAPGKERELVASISGSGSSTYYADSVKGRFTISRDNAKNTVYLQMNSLKPADTAVFYCAAEWTWGWYITFDYWGQGTQVTVSS | high polyreactivity |
| QVQLEESGGGLVQAGGSLRLSCAASGYNFVYYAMGWYRQAPGKERELDAAITGRGGSTYYADSVKGRFTISRDNAKNTVYLQMNSLKPEDTAVYYCAKKRIGPVKQFGRDYNYWGQGTQVTVSS | high polyreactivity |
| QVQLEESGGGLVQAGGSLRLSCAASGYTVVLYAMGCDIQAPGKERELVAVISWSGGSTYYADSVKGRFTISRDNAKNTVYLQMNSLKPEDTAVYYCAVSRYYNDYWGQGTQVTVSS | low polyreactivity |
| QVQLEESGGGLVQAGGSLRLSCAASVSIFFVNAMGWYRQAPGKERELVASISRDGSTNYADSVKGRFTISRDNAKNTVYLQMNSLKPEVTAVYYCNGLSADWYPEEDYWGQGTQVTVSS | low polyreactivity |
| QVQLEESGGGLVQAGGSLRLSCAGSGRNFGVNTMRWYRQATGKERDLVAAISFSGVSTYYADSVKGRFTISRDNAKNTVYLQMNSLKPEDTPVYYCAAVPYRQYPCGGYWGQGTQVTVSS | low polyreactivity |
| QVQLEESGGGLVQAGGSLRLSCDASGRTFDTNAMGWYIQAPGKERELVAVITARGGNTSYADSVKGRFTISRDNSKNTVYLQMNSLKPEDTAVYYCAAPADDTVHYQNYYWGQGTQVTVSS | low polyreactivity |
| QVQLEESGGGLVQAGGSLRLSCPASGYTFESNAMGWSRQAPRKERELVAAINGGGGTYYADSVKGRFTISRDNGKNTVYLQMNSLKPEDTAVNVDIGFAYVPNYDYWGQGTQVTVSS | low polyreactivity |
| QVQLEESGGGLVQAGGSLRLSSAASGFIYVYAMGWYRQAPGKVRELVAAITATGDSTYYADSVKGRFTISRDNAKNTVYLQMNSLKPEDTAVYYCARNVNAQKVLGGFDSWGQGTQVNVSS | low polyreactivity |
| QVQLEESGGGLVQAGGSLRLSSAASGRTFYDNTMGWYRQSPVKERELVAAISRGGSTYADSVKGRFTISRDNAKNSVYLQMNSLKPEDTAVYYCAAVPRYQYGYWGQGTQVTVSS | low polyreactivity |
| QVQLEESGGGLVQAGGSLRLSSPASGFIFRYYAMGWYRQAPGKERELVAAISGRGGSTYYADSVKGRFTISRDNAKNTVYLQMNSLKPEDTAVYYCAVDVPSQGGDYWGQGTQVTVSS | high polyreactivity |
| QVQLEESGGGLVQAGGSLRLTCAASGRIFHSNDMGWNRQAPGKERELVAAITKVGGTNYADSVKGRFTISRDNAKNTVSLQMNSLKPEDTAVYYCAAAFYLYSPISGVYLSYSEYDYWGQGSQVTVSS | high polyreactivity |
| QVQLEESGGGLVQAGGSLRLTCAASGRTIVYNAMGWYRQAPGKERELVAAIDGGTGSTYYADSVKGRFTISRDNAKNTVYLEMNCLKPEDTAVYYCAVETYGGGYPVTYDYWGQGTQVTVSS | low polyreactivity |
| QVQLEESGGGLVQAGGSLRLTCAASGSTSQIYAMGWYRQAPGKERELVAAINGVGSTNYADSVKGRFTISRDNAKNTVYLQMNSLKPEDTAVYYCAADGTALHEYLGDYDYWGQGTQVTVSS | low polyreactivity |
| QVQLEESGGGLVQAGGSLRLTCAGSGSIFDGNSMGWDRQAPGKEMELVASISWSGGTTYYADSVKGRFTISRDNATNTVYLQMNSLIPEDTAVYYCNKAGGYRRYSFWSGDYWAGLDFLGQGTQVTVSS | low polyreactivity |
| QVQLEESGGGLVQAGGSLRLTCAGSGSISYRYDMGWYRQATGKEMELVAVITGSGGSTYYADSVKGRFTISRDNAKNTVYLQMNSLKPEDTAVYYCANEPGENWTVSWRDFDFWGQGTQVTVSS | low polyreactivity |
| QVQLEESGGGLVQAGGSLRVSCAASGRTSEIYTLGGYRTAPGKERELVASINTNYADSGKGRFTISRDIAKNTVYLQLISLKPDDTAVYYCNADDTIEFNYWGQGTQVTVSW | low polyreactivity |
| QVQLEESGGGLVQAGGSLRVSCAASGSILIPNAMGWYRQAPGKERELVASISKSGGSTYYADSVKGRFTISRDTAKNTVYLQMNSLKPEDTAVYYCAAAFVSVRKRYGYWGQGTQVTVSS | high polyreactivity |
| QVQLEESGGGLVQAGGSLSLSCAASGSNFVYNAMGWYRQAPGKERELVAVINSGGSTNYADSVKGRFTISRDNAKNTVYIQKNSRKPEDTAVYYCAADRLAVHYYSWYNYWGQGTQVTVSS | low polyreactivity |
| QVQLEESGGGLVQAGRSLRLSCAASGRTFIRNAMGRYRHAPGQQRELVAAISSRGGRTYYADSVKGRFTISRDNAKTTVSLEMNSLKPEDTAVYYCAADFTYKLDGYDYWGQGSQVTVSS | high polyreactivity |

| Sequence | polyreactivity (PSR sort gate) |
| --- | --- |
| QVQLEESGGGLVQARVSLRLSSAASGFTLWNYAMGLYRQAPGKERELVAGINSGGRTYYADSVKGRFTISRDNAKNTVYLQMKSLKPEDTAVFYCNARGWSSFSHNSYFMDYWGQGTQVTVSS | high polyreactivity |
| QVQLEESGGGLVQEGGSLRLSSAASGFTFGKYAMGSYRQAPGKEMEFVASISSSGARTYYADSVKGRFTISRDNAKNTVYLQKNSLKPEDTAVYYCAAAYGRYYYTYDYWGQGTQVTVSS | high polyreactivity |
| QVQLEESGGGSVQAGGSLRISCAASGFTFFSYTMGWYRQAPGKERELVAAISKRGSRTYYADSVKGRFTISRDHAKNTVDLQMNSLKPEDTAVYYCAADAGPEVVHRREDYWGQVTQVTVSS | high polyreactivity |
| QVQLEESGGGVVQAGGSLRLSCAASGIIFYRYAMGCYRQAPGKERELVAAISKNGGRTYYADSVKGRFTISRDNAKNTVYLQMNSLKPEDTAVYYCNARYGYYLYWGQGTQVTVSS | high polyreactivity |
| QVQLEESGGGVVQAGGSLRLTCAASASTSYNMGWYTQAPGKERELVAAISYPGGRTYYADSVKGRFTISRDNAKNTVYLQMTCLKPDDTGVYYCAKRIFVTFDSWGQGTQVTVSS | low polyreactivity |
| QVQLEESGGRLVQAGGSLRLSCAASGRTFYVYALGWYRQAPGKEREFVAAISGSGGSTFYADSVKGRFTISRDNPKNTVYLQMNSLKPEDTAVYYCATGGSYLYYLKFGHLSAFDYWGQGTQVTVSS | low polyreactivity |
| QVQLEESGGRLVQAGGSLRLSCAASGSTFQTYAMGWYRQAPGKERELVAAITWRGGSTYYADSVKGRFTISRDNAKNTVYLQMNSLKPEDTAVYYCAAKWHGAHDHRAAYESWGQGTQVTVSS | low polyreactivity |
| QVQLEESGGSIVQAGGSLRLSCAASGYTFLGNAMGWYRKAPGKERELVAAISSGGTTFYADSVMGRFTISRDNAKNTVYLQMNSLNPEDTAVYYCAAKDTTVFYYDDDYWGQGTQVTVSS | low polyreactivity |
| QVQLEESGRGLVQAGGSLRLSCAASGNTLGYNAMGWYRQAPGKVRELVATFRGSGGITYYADSVKGRFTISRDNALNTVYLQMNSLKPEDTAVYYCANVYKSRVKGDHWGQGTQVTVSS | low polyreactivity |
| QVQLEESGRGLVQAGGSLRLSCAASGSIFIVYAIGWYRQAPGKERELVAAINDGGSTSYADSVKGRFTISRDNAKNTVYLQMNSLKPEDTAVYFCAAETYLGNDYWEDYYWGQGTQVTVSS | low polyreactivity |
| QVQLEESGVGLVQAGGSLRLICAASGITLFHYVMGWYRQAPGKERELVAVISSSGGSTYYADSVKGRFTISRDNAKNTVYLQMNSLKPEDTAVYYCAAETDSRKARVLYDCWGQGTQVTVSS | high polyreactivity |
| QVQLEESGVGLVQAGGSLRLSCAASGSIFYYNAMGSYRQPHGKERDLVAAISWGDGITYYADSVKGRFTISRDNGKNSVYLPMNSLKPEDTAVYYWAVDYYYLPYEYWGKGTQVTVSS | high polyreactivity |
| QVQLEESPGGLVQAGGSLRLSCAASGRIIGRYAMGWTRQAPGKERELVAAISYRGGSTYYADSVKGRFTISRDNAKNTVYLQMNSLKPEDTAVYYCAKDSRSWPFKYDYWGQGTQVTVSS | high polyreactivity |
| QVQLEESVGGLVQAGGSLRIICAASGSIFSVNSIGWSRQAPGKERELVAAITRDSGSTNYADSVKGRFTISRDNAKNTVYLQMNSLKPEDTAVYYCAADFYYNVSTTIVNFSYDYWGHGTQVTVSS | high polyreactivity |
| QVQLEETGGGLVHAGGILRLSCAASGIIYVVNAMGWYRQAPAKERELVAAISRNGGSTYYADSVKGRFTISRDNAKNTVYLQMNSLIPEDTAVYYCADRTVGRNAGFDYWGQVTQVTVSS | high polyreactivity |
| QVQLESGGGLVQAGGSLRISCAASGSTFVTYDMGWDRQAPGKEREIVAAIDWSGDSTYADSVKGRFTISRDNAKNTVYLQMNSLIPEDTAVYSCAADYDNYGDVYPYYTAGYGYWGQGTQVTVSS | low polyreactivity |
| QVQLEVSGGVLVQPGGSIRLSCAASGFIFGFYAKGWYRQAPGKERELVASISGRGGRTSYADSVKGRFTISRDNAKNTVYLQMNSLKPEDTAVYYCNKAGYGVSRKYDYWGQGTQVNVSS | high polyreactivity |
| QVQLGDSGGGLVQAGGSLRLICAASGLTIPDNTMGWYRQAPGKERELVSAIDWSGGGTDYADSVKGRFTISRDNAKNTVYLQMNSLYPVDTAVYYCATSWYIYPYDDWGQGTQVTVSS | low polyreactivity |
| QVQLGESAGGLVQAGGSLRLSCAASGFTFYPYAMGWYRQAPGKEREFVAAITWRGASTYYADSVKGRFTISRDNGKNTVYLQMNSLKPEDTAVYYCNARWRVPRGYDYWGQGTQVTVSS | high polyreactivity |
| QVQLGESGGALVQAGGSLRLSCAASGFTFKYYAMGWYRQAPGKERELVAAISRGGSTYYADSVKGRFTISRDNAKNTVYLQMNILKPEDTAVYYCAARYVRVGYDYWGQGTQVTVSS | high polyreactivity |
| QVQLGESGGGFVQAGGSLRLSCAASGFIFAPYAMGWYRHAPGKERELDAFISWSGGRTYYADSVKGRFTLSRDKAKNTVYLLMNSLNPEDTAVYYCNARGSRRGGPGYEYWGQGTQVTVSS | high polyreactivity |
